Measurements reported in PMC12668046, “Single cis‐elements in brassinosteroid‐induced upregulated genes are insufficient to recruit both redox states of the BIL1/BZR1 DNA‐binding domain” (Febs Letters, 2025).

B1: unfused BIL1/BZR1 DBD (21–104), pretreated with the reductant DTT (domain or fragment, A. thaliana, UniProt Q8S307 21-104, looked up)
chain: ARRKPSWRERENNRRRERRRRAVAAKIYTGLRAQGDYNLPKHCDNNEVLKALCVEAGWVVEEDGTTYRKGCKPLPGEIAGTSSR
notes: also called reduced BIL1/BZR1 DBD; source: expressed and purified as described previously [9, 14, 21]; SEC into reductant-free buffer
B2: mutated maltose-binding protein (mMBP)-Ala-BIL1/BZR1 DBD (amino acids 21–104) (domain or fragment, A. thaliana, UniProt Q8S307 21-104, looked up)
chain: B1 chain
notes: protomers 1 and 2 are chains C and D of the deposited entries; Co-crystallised with E-box DNA fragments; also called mMBP-fused BIL1/BZR1 DBD; mMBP-BIL1/BZR1 (21–104); source: expressed and purified as described previously [9, 14, 21]; SEC

Columns and labels:
[1] = biological target: the molecule itself; assay: SEC; unfused BIL1/BZR1 DBD pretreated with DTT; Superdex 75 10/300 GL Increase; reductant-free buffer 20 mM Tris/HCl pH 8.0, 1 M NaCl, 10% glycerol
[2] = biological target: the molecule itself; assay: crystal structure; mMBP-Ala-BIL1/BZR1 DBD co-crystallised with DNA fragments containing E-box variants (CATATG or CAGCTG); sitting drop, 293 K, 50 mM sodium cacodylate pH 6.5, 0.2 M KCl, 0.01 M MgCl2, 10% PEG 4000

| Protein | binding result [1] | binding result [2] |
| --- | --- | --- |
| B1 | binds |  |
| B2 |  | binds |
